Data: publication PMC11417369, “DNA sequence and chromatin differentiate sequence-specific transcription factor binding in the human malaria parasite Plasmodium falciparum”
Numbering of substitutions follows the chain as printed.

B1: GTGCAC_site9467 (dsDNA)
DNA 1: AAATAATGAAACAAAGTGCATAAAAATATACATATA
DNA 2: TATATGTATATTTTTATGCACTTTGTTTCATTATTT
B2: GTGCAC_site10309 (dsDNA)
DNA 1: GTTAATTTTTGTATAGTGCAAAAATATAATAGTATG
DNA 2: CATACTATTATATTTTTGCACTATACAAAAATTAAC
B3: GTGCAC_site10687 (dsDNA)
DNA 1: TATATATATTATATAGTGCATTGAAGAAGGGGATTT
DNA 2: AAATCCCCTTCTTCAATGCACTATATAATATATATA
B4: GTGCAC_site10565 (dsDNA)
DNA 1: AAAAAAGAACGCATAGTGCATATCTAAAAGATTTTT
DNA 2: AAAAATCTTTTAGATATGCACTATGCGTTCTTTTTT
B5: GTGCAC_site10268 (dsDNA)
DNA 1: TTTTTTGTTATTGGCGTGCACATATCCATTTATAGT
DNA 2: ACTATAAATGGATATGTGCACGCCAATAACAAAAAA
B6: GTGCAC_site9563 (dsDNA)
DNA 1: AAAATAATCTTTTGATTGCACTGTTACATTTTTTCT
DNA 2: AGAAAAAATGTAACAGTGCAATCAAAAGATTATTTT
B7: GTGCAC_site9605 (dsDNA)
DNA 1: AAGGGAAAAATATGGTTGCACTAAAAATATGTAATT
DNA 2: AATTACATATTTTTAGTGCAACCATATTTTTCCCTT
B8: GTGCAC_site10402 (dsDNA)
DNA 1: TTACACATGTATTTGGTGCATGTTGTTAACAAAATA
DNA 2: TATTTTGTTAACAACATGCACCAAATACATGTGTAA
B9: GTGCAC_site10026 (dsDNA)
DNA 1: ATATAAGTATTTTGAATGCACTTTCTTTTTTTTTTT
DNA 2: AAAAAAAAAAAGAAAGTGCATTCAAAATACTTATAT
B10: GTGCAC_site9741 (dsDNA)
DNA 1: ATTCATATTTTTCAAGTGCGCATTAAAATATTAACC
DNA 2: GGTTAATATTTTAATGCGCACTTGAAAAATATGAAT
B11: GTGCAC_site9648 (dsDNA)
DNA 1: ATAATTTCACAAATAGTGCAAAAATTAGTAAGAATA
DNA 2: TATTCTTACTAATTTTTGCACTATTTGTGAAATTAT
B12: GTGCAC_site10317 (dsDNA)
DNA 1: TTATATTTTCTCCGCGTGCACATATGTATACTATAC
DNA 2: GTATAGTATACATATGTGCACGCGGAGAAAATATAA
B13: GTGCAC_site10638 (dsDNA)
DNA 1: TAATATAATGATGCAGTGCATATGTTAAAATGAAAA
DNA 2: TTTTCATTTTAACATATGCACTGCATCATTATATTA
B14: GTGCAC_site9423 (dsDNA)
DNA 1: ACACATACACATTAGGTGCATATATTTCAATATTAC
DNA 2: GTAATATTGAAATATATGCACCTAATGTGTATGTGT
B15: GTGCAC_site9804 (dsDNA)
DNA 1: TCAAAAGAATAATTGGTGCAAATTATATAATATAAT
DNA 2: ATTATATTATATAATTTGCACCAATTATTCTTTTGA
B16: GTGCAC_site9626 (dsDNA)
DNA 1: TTTATTAATAAAAAGGTGCAATCAGGAAAAATTATC
DNA 2: GATAATTTTTCCTGATTGCACCTTTTTATTAATAAA
B17: GTGCAC_site9543 (dsDNA)
DNA 1: CAATATTTGTTATGGGTGCAAACCGCATATATATAA
DNA 2: TTATATATATGCGGTTTGCACCCATAACAAATATTG
B18: GTGCAC_site9428 (dsDNA)
DNA 1: B17 DNA 1 with C1A, T6G, G25A
DNA 2: B17 DNA 2 with C12T, A31C, G36T
B19: GTGCAC_site10062 (dsDNA)
DNA 1: TCTATTTTCTTATGAATGCACTAATTTATAAAACGT
DNA 2: ACGTTTTATAAATTAGTGCATTCATAAGAAAATAGA
B20: GTGCAC_site10217 (dsDNA)
DNA 1: ATATATTTTTGTAGTGTGCACGTTTATATGGTGAAA
DNA 2: TTTCACCATATAAACGTGCACACTACAAAAATATAT
B21: GTGCAC_site10324 (dsDNA)
DNA 1: TTGTTTTATTATTCGATGCACTACAGAAATATATTC
DNA 2: GAATATATTTCTGTAGTGCATCGAATAATAAAACAA
B22: GTGCAC_site9494 (dsDNA)
DNA 1: TTGTTTTTAATATCGGTGCAATGGAAAGAAAAGAAG
DNA 2: CTTCTTTTCTTTCCATTGCACCGATATTAAAAACAA
B23: GTGCAC_site10781 (dsDNA)
DNA 1: ACATTTTTGGTTTTAGTGCAATATGAATTATTTTAT
DNA 2: ATAAAATAATTCATATTGCACTAAAACCAAAAATGT
B24: GTGCAC_site10240 (dsDNA)
DNA 1: CTTTTAGAATAATCAGTGCAAAAAAAAAAAAAAAAA
DNA 2: TTTTTTTTTTTTTTTTTGCACTGATTATTCTAAAAG
B25: GTGCAC_site10266 (dsDNA)
DNA 1: TCTTAAAATATATAGGTGCAAAAAAAAAAAAAAAAA
DNA 2: TTTTTTTTTTTTTTTTTGCACCTATATATTTTAAGA
B26: GTGCAC_site9779 (dsDNA)
DNA 1: TTTTGTTATAATAAAGTGCATTTAGTCGGGTTACAA
DNA 2: TTGTAACCCGACTAAATGCACTTTATTATAACAAAA
B27: GTGCAC_site9782 (dsDNA)
DNA 1: AAAATATAAATTCATGTGCACATATATATTTTGTTA
DNA 2: TAACAAAATATATATGTGCACATGAATTTATATTTT
B28: GTGCAC_site10697 (dsDNA)
DNA 1: AATATTTCTCATTTTGTGCACTGAAAAATGTAATAT
DNA 2: ATATTACATTTTTCAGTGCACAAAATGAGAAATATT
B29: GTGCAC_site10615 (dsDNA)
DNA 1: ATTTTTTTTGTAAAAGTGCATATATATATATATATA
DNA 2: TATATATATATATATATGCACTTTTACAAAAAAAAT
B30: GTGCAC_site10398 (dsDNA)
DNA 1: AAATACTTATTCGTGGTGCAACAATTTTAAAAATTA
DNA 2: TAATTTTTAAAATTGTTGCACCACGAATAAGTATTT
B31: GTGCAC_site10006 (dsDNA)
DNA 1: ATATATTAACAAAAGGTGCTTTTGGCAAAGTATAAT
DNA 2: ATTATACTTTGCCAAAAGCACCTTTTGTTAATATAT
B32: GTGCAC_site10115 (dsDNA)
DNA 1: TTTGTTTGTAAAATGTTGCACTTTCTTTTGCTGATA
DNA 2: TATCAGCAAAAGAAAGTGCAACATTTTACAAACAAA
B33: GTGCAC_site9756 (dsDNA)
DNA 1: TACTTATTTAAAATAGTGCATGAATAGAAGATATAT
DNA 2: ATATATCTTCTATTCATGCACTATTTTAAATAAGTA
B34: GTGCAC_site9681 (dsDNA)
DNA 1: ACTACGAATGGTAGAGTGCAGTCTGGAGAAAAGTAC
DNA 2: GTACTTTTCTCCAGACTGCACTCTACCATTCGTAGT
B35: GTGCAC_site9873 (dsDNA)
DNA 1: CCCTCCCCATGTTTAGTGCAAAAATATTTGAAATTG
DNA 2: CAATTTCAAATATTTTTGCACTAAACATGGGGAGGG
B36: GTGCAC_site9938 (dsDNA)
DNA 1: GAATTATAAATTATAGTGCATAAAATTATGGCATAA
DNA 2: TTATGCCATAATTTTATGCACTATAATTTATAATTC
B37: GTGCAC_site10497 (dsDNA)
DNA 1: AAAAAAAAAAAATGTGTGCACATTATTTCAACTTAA
DNA 2: TTAAGTTGAAATAATGTGCACACATTTTTTTTTTTT
B38: GTGCAC_site9514 (dsDNA)
DNA 1: GTAGGATTTTCTTTTGTGCGCAATATAAAAAGAAAA
DNA 2: TTTTCTTTTTATATTGCGCACAAAAGAAAATCCTAC
B39: GTGCAC_site10675 (dsDNA)
DNA 1: GTAGTTATATTAAGGGTGCTTAATTAGATTAAACAA
DNA 2: TTGTTTAATCTAATTAAGCACCCTTAATATAACTAC
B40: GTGCAC_site10474 (dsDNA)
DNA 1: TTTTTTGTTACAACAGTGCAAAAAAACCTTAATGTT
DNA 2: AACATTAAGGTTTTTTTGCACTGTTGTAACAAAAAA
B41: GTGCAC_site9414 (dsDNA)
DNA 1: TTAAATATTTTTAGAGTGCATGTAATAAAAATATAA
DNA 2: TTATATTTTTATTACATGCACTCTAAAAATATTTAA
B42: GTGCAC_site10469 (dsDNA)
DNA 1: ATTTTCACCTGAACGGTGCATATTTAATTTTAGGTT
DNA 2: AACCTAAAATTAAATATGCACCGTTCAGGTGAAAAT
B43: GTGCAC_site9508 (dsDNA)
DNA 1: TAATAAAAAGTTGAGGTGCATATAGAGTTCTTCTTT
DNA 2: AAAGAAGAACTCTATATGCACCTCAACTTTTTATTA
B44: GTGCAC_site10220 (dsDNA)
DNA 1: CATATAAAAAATATGGTGCAGTTTTTTTTTTTTTTT
DNA 2: AAAAAAAAAAAAAAACTGCACCATATTTTTTATATG

Each binder was assayed against AP2-I D3 (Plasmodium falciparum, UniProt Q8IJW6 910-1027) (assay: gcPBM; about 25 ug protein; PBS, 1% milk, 0.2 mg/ml BSA, salmon testes DNA, 0.03% Triton X-100). Settings: tags: N-terminal GST (pGEX-4T-1), kept; label: surface-attached array probe.
With B1 the binding signal was 10.6 ln median PBM intensity, better of two orientations. With B2 the binding signal was 10.6 ln median PBM intensity, better of two orientations. In the case of B3, the binding signal is reported as 11.1 ln median PBM intensity, better of two orientations. In the case of B4, the binding signal is reported as 9.16 ln median PBM intensity, better of two orientations. In the case of B5, the binding signal is reported as 10.4 ln median PBM intensity, better of two orientations. With B6 the binding signal was 9.41 ln median PBM intensity, better of two orientations. B7 was tested, and the binding signal was 9.25 ln median PBM intensity, better of two orientations. With B8 the binding signal was 9.49 ln median PBM intensity, better of two orientations. In the case of B9, the binding signal is reported as 10.5 ln median PBM intensity, better of two orientations. B10 was tested, and the binding signal was 9.34 ln median PBM intensity, better of two orientations. For B11, the binding signal was 10.3 ln median PBM intensity, better of two orientations. In the case of B12, the binding signal is reported as 10.2 ln median PBM intensity, better of two orientations. With B13 the binding signal was 9.15 ln median PBM intensity, better of two orientations. B14 was tested, and the binding signal was 10.6 ln median PBM intensity, better of two orientations. In the case of B15, the binding signal is reported as 10.8 ln median PBM intensity, better of two orientations. In the case of B16, the binding signal is reported as 10.7 ln median PBM intensity, better of two orientations. B17 was tested, and the binding signal was 10.3 ln median PBM intensity, better of two orientations. In the case of B18, the binding signal is reported as 10.2 ln median PBM intensity, better of two orientations. B19 was tested, and the binding signal was 10.8 ln median PBM intensity, better of two orientations. For B20, the binding signal was 10.5 ln median PBM intensity, better of two orientations. For B21, the binding signal was 9.21 ln median PBM intensity, better of two orientations. With B22 the binding signal was 10.2 ln median PBM intensity, better of two orientations. For B23, the binding signal was 11 ln median PBM intensity, better of two orientations. With B24 the binding signal was 10.1 ln median PBM intensity, better of two orientations. In the case of B25, the binding signal is reported as 10.9 ln median PBM intensity, better of two orientations. For B26, the binding signal was 10.4 ln median PBM intensity, better of two orientations. In the case of B27, the binding signal is reported as 9.03 ln median PBM intensity, better of two orientations. In the case of B28, the binding signal is reported as 11 ln median PBM intensity, better of two orientations. With B29 the binding signal was 10.5 ln median PBM intensity, better of two orientations. For B30, the binding signal was 10.4 ln median PBM intensity, better of two orientations. B31 was tested, and the binding signal was 9.45 ln median PBM intensity, better of two orientations. With B32 the binding signal was 9.33 ln median PBM intensity, better of two orientations. With B33 the binding signal was 9.47 ln median PBM intensity, better of two orientations. B34 was tested, and the binding signal was 9.19 ln median PBM intensity, better of two orientations. For B35, the binding signal was 10.9 ln median PBM intensity, better of two orientations. In the case of B36, the binding signal is reported as 10.8 ln median PBM intensity, better of two orientations. For B37, the binding signal was 9.36 ln median PBM intensity, better of two orientations. For B38, the binding signal was 9.23 ln median PBM intensity, better of two orientations. B39 was tested, and the binding signal was 10.8 ln median PBM intensity, better of two orientations. In the case of B40, the binding signal is reported as 10.2 ln median PBM intensity, better of two orientations. B41 was tested, and the binding signal was 9.27 ln median PBM intensity, better of two orientations. In the case of B42, the binding signal is reported as 10 ln median PBM intensity, better of two orientations. In the case of B43, the binding signal is reported as 10.5 ln median PBM intensity, better of two orientations. In the case of B44, the binding signal is reported as 10.3 ln median PBM intensity, better of two orientations.
